One series addresses T1, SPRTN-EQ (Homo sapiens, UniProt Q9H040 1-489, E112Q).
T1 sequence: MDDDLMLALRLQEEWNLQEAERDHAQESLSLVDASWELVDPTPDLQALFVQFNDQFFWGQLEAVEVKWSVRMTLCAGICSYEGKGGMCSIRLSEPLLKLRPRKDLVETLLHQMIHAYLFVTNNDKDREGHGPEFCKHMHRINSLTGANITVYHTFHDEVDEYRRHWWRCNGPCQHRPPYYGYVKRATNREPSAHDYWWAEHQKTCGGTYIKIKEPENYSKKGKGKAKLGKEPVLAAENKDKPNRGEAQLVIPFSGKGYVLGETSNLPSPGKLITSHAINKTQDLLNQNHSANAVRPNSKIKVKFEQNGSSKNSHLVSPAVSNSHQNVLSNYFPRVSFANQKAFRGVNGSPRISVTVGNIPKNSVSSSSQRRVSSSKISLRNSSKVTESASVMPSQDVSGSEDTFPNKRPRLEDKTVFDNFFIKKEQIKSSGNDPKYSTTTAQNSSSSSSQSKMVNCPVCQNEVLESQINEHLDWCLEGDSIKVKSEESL
Kind of series: SAXS; 1:1.2 protein:DNA; Rg +8-10 A, Dmax +30 A; 50 mM HEPES pH 7.5, 75 mM KCl, 1% glycerol; Oligo EMSA: protein in 250 mM NaCl, 50 mM HEPES pH 7.5, 10% glycerol mixed 1:1 with DNA in 0.2 mg/ml BSA, 15 uM (so in the source) HEPES pH 7.5; 20 min on ice; 6% PAGE. Phage DNA: 0.8% agarose, 4 C. The settings on record: protein: recombinant; tags: N-terminal GST, C-terminal Strep.

The target in the next series is T2, SPRTN 247-489 (Homo sapiens, UniProt Q9H040 247-489).
T2 sequence: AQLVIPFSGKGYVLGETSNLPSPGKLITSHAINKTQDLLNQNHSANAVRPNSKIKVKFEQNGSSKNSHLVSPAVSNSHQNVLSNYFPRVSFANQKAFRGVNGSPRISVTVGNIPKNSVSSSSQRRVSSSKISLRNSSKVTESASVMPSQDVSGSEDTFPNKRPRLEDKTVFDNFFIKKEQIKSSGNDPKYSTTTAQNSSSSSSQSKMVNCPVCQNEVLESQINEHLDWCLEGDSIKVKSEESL
Kind of series: EMSA; 250 nM DNA, 0.5-1 uM protein; Oligo EMSA: protein in 250 mM NaCl, 50 mM HEPES pH 7.5, 10% glycerol mixed 1:1 with DNA in 0.2 mg/ml BSA, 15 uM (so in the source) HEPES pH 7.5; 20 min on ice; 6% PAGE. Phage DNA: 0.8% agarose, 4 C. The settings on record: protein: recombinant; label: 5' Alexa488. A general note: In EMSA bound probe runs differently from free probe, usually more slowly.

Another series addresses T3, SPRTN WT (Homo sapiens, UniProt Q9H040 1-489).
T3 sequence: T1 sequence with Q112E
The series is described as above. The settings on record: protein: recombinant; tags: N-terminal GST, C-terminal Strep; label: 5' Alexa488.

Another series concerns the target T4, SPRTN 200-250 (Homo sapiens, UniProt Q9H040 200-250).
T4 sequence: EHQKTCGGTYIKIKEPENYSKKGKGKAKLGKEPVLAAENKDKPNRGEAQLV
As to the kind of experiment: EMSA; 250 nM DNA, 0.25-1 uM protein; Oligo EMSA: protein in 250 mM NaCl, 50 mM HEPES pH 7.5, 10% glycerol mixed 1:1 with DNA in 0.2 mg/ml BSA, 15 uM (so in the source) HEPES pH 7.5; 20 min on ice; 6% PAGE. Phage DNA: 0.8% agarose, 4 C. The settings on record: protein: recombinant; tags: GST; label: 5' Alexa488.

In a further series the target is T5, SPRTN 1-199 (Homo sapiens, UniProt Q9H040 1-199).
T5 sequence: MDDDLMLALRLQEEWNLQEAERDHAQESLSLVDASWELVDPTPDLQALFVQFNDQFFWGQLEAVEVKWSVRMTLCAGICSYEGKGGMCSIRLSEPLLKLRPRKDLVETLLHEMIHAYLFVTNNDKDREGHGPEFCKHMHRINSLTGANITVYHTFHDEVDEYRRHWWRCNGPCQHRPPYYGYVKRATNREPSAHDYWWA
The series is described as above. The settings on record: protein: recombinant; tags: N-terminal GST, C-terminal Strep; label: 5' Alexa488.

Where a chain is given by its changes, count along the chain named.

B1: 15-mer ssDNA (ssDNA)
DNA: ACGCTGCCGAATTCT
With B1, the binding result with SPRTN-EQ is reported as “binds”.

B2: Alexa488 30-mer ss oligonucleotide (ssDNA)
DNA: ACGCTGCCGAATTCTACCAGTGCCTTGCTA
For the molecule B2, the binding result with SPRTN 247-489 was “no binding”; in the series with SPRTN WT, “binds”; with SPRTN 200-250, “binds”; in the series with SPRTN 1-199, “no binding”.

The values are drawn from article PMC5128726, “Mechanism and Regulation of DNA-Protein Crosslink Repair by the DNA-Dependent Metalloprotease SPRTN”.
